{
  "source": "paper PMC2063917",
  "key": {"[1]": {"target": "His6-TIP47(152-434) (UniProt O60664)", "sequence (O60664 152-434)": "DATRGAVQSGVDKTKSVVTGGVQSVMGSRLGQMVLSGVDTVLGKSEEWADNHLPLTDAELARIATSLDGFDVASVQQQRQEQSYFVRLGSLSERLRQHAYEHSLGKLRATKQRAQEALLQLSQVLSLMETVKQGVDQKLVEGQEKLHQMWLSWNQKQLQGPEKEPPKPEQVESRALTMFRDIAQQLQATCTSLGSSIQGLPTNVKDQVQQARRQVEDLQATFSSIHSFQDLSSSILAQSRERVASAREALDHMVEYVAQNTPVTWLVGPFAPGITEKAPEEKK", "test": "pull-down"}, "[2]": {"target": "NH2-terminal His6-tagged p40 (UniProt Q7Z6M1)", "sequence (Q7Z6M1 whole entry)": "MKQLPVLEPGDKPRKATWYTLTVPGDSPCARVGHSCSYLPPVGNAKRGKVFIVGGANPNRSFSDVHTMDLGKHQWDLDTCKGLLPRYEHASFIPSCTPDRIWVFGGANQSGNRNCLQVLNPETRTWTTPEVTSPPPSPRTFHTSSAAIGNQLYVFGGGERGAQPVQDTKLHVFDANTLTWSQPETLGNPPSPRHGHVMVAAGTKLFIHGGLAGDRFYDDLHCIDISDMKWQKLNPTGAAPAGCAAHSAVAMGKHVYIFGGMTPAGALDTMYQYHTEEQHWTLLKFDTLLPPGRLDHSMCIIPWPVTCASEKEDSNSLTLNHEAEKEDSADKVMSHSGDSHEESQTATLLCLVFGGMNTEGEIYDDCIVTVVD", "test": "pull-down"}},
  "data": [
    {"substance": "Rab9-CLLL, untagged (from UniProt P24408 1-201) (natural protein)", "values": [
      {"measurement": "pmol Rab9 bound (taken as 100% binding)", "setting": "[1]", "result": 1.5, "unit": "pmol"},
      {"measurement": "pmol Rab9 bound (taken as 100% binding)", "setting": "[2]", "result": 3.9, "unit": "pmol"}
    ]}
  ]
}
